Results taken from publication PMC8516035.

Assays:
[1] = tested on: phi13 rCI (CI repressor, N-terminal His-TEV) (Staphylococcus aureus phage phi13); test: EMSA; conditions: Binding buffer (as listed, possibly stock) 100 mM Tris-HCl, 5 mM EDTA, 500 mM NaCl, 5 mM DTT, 25% glycerol, plus BSA and sheared DNA, pH not stated, ~0.5 nM …
[2] = tested on: phi13 rCI (CI repressor, N-terminal His-TEV) (Staphylococcus aureus phage phi13); test: EMSA; conditions: Binding buffer (as listed, possibly stock) 100 mM Tris-HCl, 5 mM EDTA, 500 mM NaCl, 5 mM DTT, 25% glycerol, plus BSA and sheared DNA; pH not stated; ~0.5 nM …
[3] = tested on: phi13 CI, His-TEV tag cleaved (Staphylococcus aureus phage phi13); test: EMSA; conditions: Binding buffer (as listed, possibly stock) 100 mM Tris-HCl, 5 mM EDTA, 500 mM NaCl, 5 mM DTT, 25% glycerol, plus BSA and sheared DNA; pH not stated; ~0.5 nM …
[4] = target: ɸ13 rCI (recombinant CI repressor protein of phage ɸ13 with an N-terminal His-tag and TEV cleavage site) (S. aureus phage ɸ13); test: SEC; HiLoad 26/600 Superdex200 column; 20 mM Tris, 100 mM NaCl, pH 7.5; calibrated with Mw standards (Blue Dextran, Ferritin, Catalase, Aldolase, Carbonic Anhydrase, Aprotinin); tagged rCI after IMAC
[5] = tested on: T1, phi13 CI, His-TEV tag cleaved (Staphylococcus aureus phage phi13), ORF:0019350b; test: EMSA
T1 sequence: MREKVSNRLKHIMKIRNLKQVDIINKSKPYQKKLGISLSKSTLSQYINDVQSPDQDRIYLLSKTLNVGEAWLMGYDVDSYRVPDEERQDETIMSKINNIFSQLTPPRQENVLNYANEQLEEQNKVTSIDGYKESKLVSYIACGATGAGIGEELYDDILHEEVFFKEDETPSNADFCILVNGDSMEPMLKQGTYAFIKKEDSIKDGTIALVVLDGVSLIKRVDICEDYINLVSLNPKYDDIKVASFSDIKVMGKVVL

[6] = apparent, free-probe loss, no specific band detected

With OD the Kd [1] was 3.3 nM, the Kd [2] was 15 nM and the Kd [3] was 12 nM.
Substance “ɸ13 rCI (recombinant CI repressor protein of phage ɸ13 with an N-terminal His-tag and TEV cleavage site)” has a stoichiometry N [4] of 4.
OL control was tested, and the Kd [1, 6] was 690 nM.
For OD control, the Kd [1, 6] was 900 nM.
Substance OR control has a Kd [1, 6] of 690 nM.
In the case of “GTAATACGACTCACTATAGGATATACCGGTAGAGAAAATACACTTATATTTTTTTAAAGAAAAAGTTCATGTTATATGAACTTAAGGAGGGGCACAATGGAACAAATCACGGATCCGGTAACTTTCACACAAAAGG (double strand) [OD]”, the Kd [5] is reported as 12 nM.
Substance OR has a Kd [1] of 100 nM, a Kd [2] of 310 nM and a Kd [3] of 12 nM.
Substance “GTAATACGACTCACTATAGGGACTTGATTCAAAACAAGGTGTAAAGTATAGTTAAGTTCATGATACGTGAACTTGAGAGGAGGTGCTTTTATGTGTTACGACTACTCAGGTAACTTTCACACAAAAGG (double strand) [OL]” has a Kd [5] of 12 nM.
In the case of “GTAATACGACTCACTATAGGATAATAAAGCTTGTTGAACAAAAATTCAACAAAAAAGTTCATAAATCATGAATTTTTGTATTGACTTGATTCAAAACAAGGTGTAAAGTGGTAACTTTCACACAAAAGG (double strand) [OR]”, the Kd [5] is reported as 12 nM.
OL showed a Kd [1] of 3.9 nM, a Kd [2] of 22 nM and a Kd [3] of 12 nM.
